Reference: the supplement of paper PMC10724198
± gives the standard deviation of the averaged measurements.

System: Saccharomyces cerevisiae
Assay: protein stability index of tFT-peptide fusion (C-terminal peptide) (PSI (0-1 scale)); higher = more stable (slower turnover)
Conditions: genetic background: wild type; temperature: 30 C
Method: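 Multiplexed protein stability (MPS) profiling in S. cerevisiae. Random 12-aa peptides (tFT-X12 library) are fused to the C-terminus of a sfGFP-mCherry tandem fluorescent timer, after mCherry and a GGGS linker. Cells are FACS-sorted into 8 mCherry/sfGFP bins and deep-sequenced. The protein stability index (PSI) is the read-weighted bin average, scaled from 0 (unstable) to 1 (stable). Only peptides with >10 reads are reported; cells were grown at 30 °C in SC-His with glucose.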
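Note: PSI is a weighted mean of sequencing reads over stability bins, variants kept only with over 10 reads, mCherry proximal and sfGFP distal, peptide attached via GGGS linker.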

| Sequence | protein stability index |
| --- | --- |
| GAVRGGSGDWGR | 0.723 ± 0.0083 |
| GAWFSWLGEVVG | 0.701 ± 0.075 |
| GCASTNTPSTTP | 0.714 ± 0.022 |
| GCENSRRSWRPD | 0.609 ± 0.028 |
| GCFTLLCFRRIL | 0.511 ± 0.012 |
| GCGCVVRVWSGV | 0.6621 ± 0.0013 |
| GCGDSLGGERRE | 0.643 ± 0.1 |
| GCLCAGSMVGDL | 0.666 ± 0.015 |
| GCLLVVGGVWGS | 0.625 ± 0.036 |
| GCLVGRGQRGTE | 0.686 ± 0.026 |
| GCQVAVGRAGGV | 0.659 ± 0.023 |
| GCRGGLREAGVW | 0.768 ± 0.024 |
| GCRLVSDCRVFV | 0.67 ± 0.031 |
| GCSLTFAGLFCI | 0.629 ± 0.01 |
| GCTNSCGRHVKG | 0.6426 ± 0.006 |
| GCWGGLGAPGVS | 0.734 ± 0.028 |
| GDFFVSFRCLLL | 0.606 ± 0.027 |
| GDNRSVSRKAEW | 0.614 ± 0.047 |
| GDRAKTKQRESN | 0.671 ± 0.01 |
| GDTKKRTQGRGV | 0.653 ± 0.011 |
| GDTRILKSRPEI | 0.699 ± 0.0098 |
| GEAFLVRRSRNR | 0.722 ± 0.082 |
| GEAVTGQRGATS | 0.71 ± 0.025 |
| GEDGCGWSEAGG | 0.664 ± 0.017 |
| GEEGAWSRQGPP | 0.658 ± 0.035 |

| Sequence | protein stability index |
| --- | --- |
| GEEGQRGRGWRS | 0.733 ± 0.039 |
| GEGNAIGQVVRN | 0.681 ± 0.021 |
| GEILTLYLLPRL | 0.705 ± 0.052 |
| GELADVVWLGGE | 0.652 ± 0.057 |
| GENTRKNNVVGE | 0.69 ± 0.017 |
| GENVVPGLHTQV | 0.675 ± 0.064 |
| GEPSYLEYSNLV | 0.765 ± 0.042 |
| GEQEKRFFLSPL | 0.717 ± 0.021 |
| GERWGGGRAAET | 0.714 ± 0.076 |
| GETGGRSQDARI | 0.744 ± 0.088 |
| GEVAQDLGRDIL | 0.7124 ± 0.0019 |
| GEYLWVHRIISE | 0.679 ± 0.086 |
| GEYYAPVVGRRF | 0.7121 ± 0.0031 |
| GFCLGSLPQRLD | 0.65 ± 0.019 |
| GFCWFRGVGSGG | 0.683 ± 0.044 |
| GFFNNRLASSLR | 0.734 ± 0.098 |
| GFFRRNLGRVMD | 0.608 ± 0.074 |
| GFGLACGRCMGS | 0.623 ± 0.098 |
| GFLGLLASFFVL | 0.604 ± 0.022 |
| GFLSSLRLLPPF | 0.688 ± 0.029 |
| GFLSSSKSCRCH | 0.632 ± 0.059 |
| GFNRRVWRGLGV | 0.721 ± 0.053 |
| GFRLCVFGSSLF | 0.6956 ± 0.0025 |
| GFSLGAPRPFVQ | 0.718 ± 0.039 |
| GFSSVPFFPLSR | 0.7142 ± 0.003 |

| Sequence | protein stability index |
| --- | --- |
| GFTCGCSSMKNF | 0.718 ± 0.021 |
| GFVPRSFNTLTS | 0.664 ± 0.053 |
| GFVPWVCGVRMS | 0.689 ± 0.051 |
| GFWESLGGVGAE | 0.697 ± 0.049 |
| GGAAAWAERCGG | 0.726 ± 0.0097 |
| GGACGRRSEDCQ | 0.633 ± 0.087 |
| GGAEEGRANCWN | 0.722 ± 0.1 |
| GGAFPGPGFGLD | 0.68 ± 0.017 |
| GGAPMRPGGGTC | 0.678 ± 0.065 |
| GGASRLARMGWW | 0.642 ± 0.034 |
| GGAVGYRLVACD | 0.656 ± 0.11 |
| GGAVSRVGEWGR | 0.7881 ± 0.0073 |
| GGCGSAGRGQRG | 0.697 ± 0.062 |
| GGCGWRGDGGGA | 0.679 ± 0.13 |
| GGCSRYVLILFD | 0.686 ± 0.15 |
| GGDCGERRGNEV | 0.65 ± 0.05 |
| GGEGWGAFWGGE | 0.713 ± 0.05 |
| GGELGGTGVGGG | 0.6881 ± 0.0016 |
| GGFKGGKWVVEG | 0.606 ± 0.021 |
| GGFRREPWEILR | 0.649 ± 0.0012 |
| GGFSLTGSLCID | 0.687 ± 0.035 |
| GGGAAGILWGLG | 0.694 ± 0.013 |
| GGGAGGVVGGIS | 0.694 ± 0.027 |
| GGGAGLVGGCVA | 0.735 ± 0.019 |
| GGGARQAGGDNI | 0.666 ± 0.045 |

| Sequence | protein stability index |
| --- | --- |
| GGGCGGACRPVG | 0.692 ± 0.14 |
| GGGCGGGGSSCA | 0.654 ± 0.069 |
| GGGCGGGQAGCQ | 0.691 ± 0.043 |
| GGGCGMEPGCGP | 0.687 ± 0.062 |
| GGGFRVLCVGLG | 0.627 ± 0.037 |
| GGGGEDQSQGPP | 0.69 ± 0.027 |
| GGGGFGFGWSMV | 0.709 ± 0.059 |
| GGGGGECCFLEG | 0.753 ± 0.081 |
| GGGGGGGSRTGA | 0.691 ± 0.037 |
| GGGGGGPSGGSG | 0.701 ± 0.079 |
| GGGGGGVDWFEI | 0.71359 ± 2.1e-05 |
| GGGGGISGGRWG | 0.667 ± 0.075 |
| GGGGGLRVSCGT | 0.679 ± 0.083 |
| GGGGGVWGVGRV | 0.66 ± 0.047 |
| GGGGRWGVLVLG | 0.504 ± 0.0062 |
| GGGGVACAGCTV | 0.637 ± 0.056 |
| GGGGWGGAGLVG | 0.704 ± 0.014 |
| GGGMRLVKRACY | 0.64 ± 0.031 |
| GGGNRGTGCDWG | 0.628 ± 0.013 |
| GGGPGRGVWVRV | 0.705 ± 0.021 |
| GGGRCSGDGDRG | 0.708 ± 0.063 |
| GGGREGNGRERS | 0.594 ± 0.053 |
| GGGRWWRVGVGF | 0.729 ± 0.021 |
| GGGVDSGWGKGE | 0.688 ± 0.024 |
| GGGVGVPDSASE | 0.681 ± 0.047 |

| Sequence | protein stability index |
| --- | --- |
| GGKKRGVRMCGG | 0.655 ± 0.013 |
| GGLGGWAECGRW | 0.748 ± 0.11 |
| GGLLGRLWDGGA | 0.723 ± 0.04 |
| GGLREPIYQLWV | 0.648 ± 0.076 |
| GGMAFSRPSFNG | 0.729 ± 0.032 |
| GGMMRGHRHRCW | 0.812 ± 0.0095 |
| GGPPTQAKPSPR | 0.647 ± 0.012 |
| GGPSLTRCAAFG | 0.677 ± 0.063 |
| GGQGFWRLWCLG | 0.686 ± 0.05 |
| GGQRPKRQQLTT | 0.7022 ± 0.0058 |
| GGREVGQVLWDD | 0.667 ± 0.024 |
| GGREWRGGQGEV | 0.669 ± 0.12 |
| GGRGGRSGTEGE | 0.6763 ± 0.0011 |
| GGRGPRGAANRG | 0.634 ± 0.066 |
| GGRRKKRVTPGE | 0.656 ± 0.0097 |
| GGRRRAWLGGRW | 0.746 ± 0.012 |
| GGRVAGSMGVGG | 0.68 ± 0.02 |
| GGRWGGVSLGGR | 0.693 ± 0.11 |
| GGSESRGSDRWE | 0.633 ± 0.038 |
| GGSGQGAGAVWG | 0.63 ± 0.076 |
| GGSNEKARGTGR | 0.6544 ± 0.00083 |
| GGSVGGGTGWRM | 0.65 ± 0.022 |
| GGVGGASMSGTP | 0.674 ± 0.037 |
| GGVGVGVGCGGR | 0.6828 ± 0.0017 |
| GGVRGERSDLRT | 0.712 ± 0.028 |

| Sequence | protein stability index |
| --- | --- |
| GGVVLTWVGENC | 0.704 ± 0.061 |
| GGWEGLRGLGVG | 0.634 ± 0.031 |
| GGWGGAGQWADG | 0.706 ± 0.011 |
| GGWGGKLVGRMG | 0.708 ± 0.0083 |
| GGWGVGVWGVGG | 0.753 ± 0.08 |
| GGWKINYVEENR | 0.663 ± 0.011 |
| GGWTFGSPPYEI | 0.693 ± 0.015 |
| GGYSNRNVEVIV | 0.6323 ± 0.003 |
| GHKVTKDAIRIR | 0.6545 ± 0.0047 |
| GHRMMWLFGVPA | 0.59 ± 0.035 |
| GHSNVTSQIRRG | 0.643 ± 0.017 |
| GHVRVVVRRRVI | 0.5812 ± 0.0021 |
| GHWTRRPSVKGK | 0.643 ± 0.0092 |
| GICIVGGCGCVG | 0.612 ± 0.068 |
| GINFEIKFKRYN | 0.764 ± 0.055 |
| GIRRSLALSAIS | 0.555 ± 0.017 |
| GISKHGAITSRI | 0.725 ± 0.0033 |
| GIVDCTKVIGLP | 0.722 ± 0.028 |
| GKARLATGESAL | 0.674 ± 0.031 |
| GKCKRYENISKR | 0.629 ± 0.0095 |
| GKCLEGCCLVWG | 0.686 ± 0.008 |
| GKEGGKAGKISE | 0.667 ± 0.028 |
| GKEKRKEGERRK | 0.697 ± 0.12 |
| GKPTPRRPEKDG | 0.6096 ± 0.0051 |
| GKRKGETGNRGG | 0.741 ± 0.19 |

| Sequence | protein stability index |
| --- | --- |
| GKRKKRRKRRRT | 0.664 ± 0.043 |
| GKRRKKDGNKKR | 0.621 ± 0.066 |
| GKSTFWTELAII | 0.648 ± 0.045 |
| GKYIPHGNPSMA | 0.685 ± 0.051 |
| GLAIRRDWLGWV | 0.745 ± 0.056 |
| GLCGGFGGLRGL | 0.743 ± 0.031 |
| GLCLFPAFSFPF | 0.671 ± 0.089 |
| GLCVFVNKPSIL | 0.711 ± 0.011 |
| GLCVGVGLVWKL | 0.65 ± 0.07 |
| GLDEGCRVGEEV | 0.643 ± 0.013 |
| GLFDLLCHCCWL | 0.702 ± 0.05 |
| GLFNIDLFRFVR | 0.732 ± 0.041 |
| GLFPGSRLRLVE | 0.666 ± 0.011 |
| GLFVDIRLHRRT | 0.71 ± 0.017 |
| GLGGGRCFWGVG | 0.686 ± 0.061 |
| GLGGGVGGGLVV | 0.7045 ± 0.0046 |
| GLGGSKKGEQRL | 0.674 ± 0.012 |
| GLGLVSWEAGGV | 0.68 ± 0.025 |
| GLGTRLSAVVLS | 0.625 ± 0.039 |
| GLGWPPGEARRV | 0.621 ± 0.047 |
| GLIATWMYKFVF | 0.617 ± 0.038 |
| GLLAIVLYEYTG | 0.537 ± 0.0083 |
| GLLARESLSFRH | 0.675 ± 0.026 |
| GLLGVGDFRTEF | 0.638 ± 0.048 |
| GLMTISFPSFFR | 0.704 ± 0.068 |

| Sequence | protein stability index |
| --- | --- |
| GLMYDGVGCGGD | 0.671 ± 0.012 |
| GLNGGRLEGERR | 0.731 ± 0.11 |
| GLNLDLSGRLAF | 0.703 ± 0.032 |
| GLQFYPFLSVVR | 0.617 ± 0.013 |
| GLQIERAVGIRH | 0.708 ± 0.028 |
| GLRLGRVWVGGW | 0.6647 ± 0.0026 |
| GLRRSTRSRLVF | 0.593 ± 0.12 |
| GLRRTGRISGSV | 0.7 ± 0.0076 |
| GLRSKLEKVQRG | 0.726 ± 0.047 |
| GLSCESLRLFFR | 0.702 ± 0.015 |
| GLSFSAALFSAF | 0.673 ± 0.05 |
| GLSHPPNFLPSG | 0.6505 ± 0.00088 |
| GLSIVGAALHSA | 0.663 ± 0.025 |
| GLSSGLWAFWWP | 0.749 ± 0.049 |
| GLTCKSTASCKV | 0.693 ± 0.01 |
| GLVCRKGSMGVR | 0.671 ± 0.057 |
| GLVFSFSACPVL | 0.653 ± 0.066 |
| GLVGCLFFCCIG | 0.558 ± 0.013 |
| GLVGLSLSSCGR | 0.653 ± 0.088 |
| GLVLPGHLTLAS | 0.628 ± 0.08 |
| GLVRGRLVGLED | 0.646 ± 0.056 |
